In this assay the target is specific saturable binding sites for S100A8/A9 on cell membranes of blood MDSC (carboxylated N-glycan receptors). Put plainly: radioligand binding.

“S100A8/A9 heterodimer, purified, Na125I-labeled (from UniProt P27005 1-89; P31725 1-113) (complex)” yielded a Kd of 37.4 nM. This counts as double-digit nanomolar.

(Values after article PMC2810501.)
